Assay results taken from patent publication US20220291215A1 (published 2022).

Columns and labels:
Assay in all cases: multimer staining
[1] = target: T1, MAGE-A2 peptide on HLA-DPA1*01:03 / HLA-DPB1*04:01 (human)
T1 peptide: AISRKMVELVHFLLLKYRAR

[2] = target: T2, MUC5AC peptide on HLA-DPA1*01:03 / HLA-DPB1*04:01 (human)
T2 peptide: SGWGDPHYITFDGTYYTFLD

[3] = target: T3, LGSN peptide on HLA-DPA1*01:03 / HLA-DPB1*04:01 (human)
T3 peptide: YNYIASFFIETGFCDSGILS

[4] = target: T4, LY6K peptide on HLA-DRA*01:01 / HLA-DRB1*01:01 (human)
T4 peptide: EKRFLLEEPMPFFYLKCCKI

[5] = target: T5, HSD17B12 peptide on HLA-DPA1*01:03 / HLA-DPB1*04:01 (human)
T5 peptide: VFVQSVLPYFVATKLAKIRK

[6] = target: T6, CCND1 peptide on HLA-DPA1*01:03 / HLA-DPB1*04:01 (human)
T6 peptide: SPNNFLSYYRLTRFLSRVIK

B1: 03-MAGE-A2108-127 (TCR)
alpha TRAV36/DV7*04 TRAJ40*01 CDR3: CAVEVNSGTYKYIF
beta TRBV2*01 TRBJ1-1*01 CDR3: CASRRDLAAFF
binding result [1]: recognises

B2: 05-MUC5AC4922-4941 (TCR)
Valpha: QTVTQSQPEMSVQEAETVTLSCTYDTSESNYYLFWYKQPPSRQMILVIRQEAYKQQNATENRFSVNFQKAAKSFSLKISDSQLGDTAMYFCAFMKRAETSGSRLTFGEGTQLTVNP
beta TRBV6-2*01 TRBJ2-5*01 CDR3: CASSYWPTRETQYF
binding result [2]: recognises

B3: 05-LGSN296-315 (TCR)
alpha TRAV9-2*03 TRAJ32*01 CDR3: CALSDLSYGGATNKLIF
beta TRBV27*01 TRBJ1-5*01 CDR3: CASSKGQGLGNQPQHF
binding result [3]: recognises

B4: DR1-08-LY6K99-118 (TCR)
alpha TRAV38-2/DV8*01 TRAJ52*01 CDR3: CAYRSFLNAGGTSYGKLTF
beta TRBV20-1*01 TRBJ1-6*01 CDR3: CAASRESKWSSYNSPLHF
binding result [4]: recognises

B5: 05-HSD17B12225-244 (TCR)
alpha TRAV22*01 TRAJ18*01 CDR3: CAVAPYDRGSTLGRLYF
beta TRBV19*01 TRBJ2-5*01 CDR3: CASSTGQGLETQYF
binding result [5]: recognises

B6: 06-MAGE-A2108-127 (TCR)
alpha TRAV19*01 TRAJ40*01 CDR3: CALSVGTYKYIF
beta TRBV7-9*01 TRBJ2-5*01 CDR3: CASSPGTGGRETQYF
binding result [1]: recognises

B7: 03-CCND1219-238 (TCR)
alpha TRAV2*01 TRAJ21*01 CDR3: CAVCTLYNFNKFYF
beta TRBV6-5*01 TRBJ2-1*01 CDR3: CASLTDNNEQFF
binding result [6]: recognises
